B1: Medaka EP-1 serine protease domain mutant K63R (protein)
chain: VVGGVNAEKGAWPWMVSLHWRGRHGCGASLIGRDWLLTAAHCVYGRNTHLQYWSAVLGLHAQSSMNSQEVQIRQVDRIIINKNYNRRTKEADIAMMHLQQPVNFTEWVLPVCLASEDQHFPAGRRCFIAGWGRDAEGGSLPDILQEAEVPLVDQDECQRLLPEYTFTSSMLCAGYPEGGVDSCQGDSGGPLMCLEDARWTLIGVTSFGVGCGRPERPGAYARVSAFTSWIAETRRSSFSDLD
B2: Medaka EP-1 serine protease domain mutant P193E (protein)
chain: VVGGVNAEKGAWPWMVSLHWRGRHGCGASLIGRDWLLTAAHCVYGKNTHLQYWSAVLGLHAQSSMNSQEVQIRQVDRIIINKNYNRRTKEADIAMMHLQQPVNFTEWVLPVCLASEDQHFPAGRRCFIAGWGRDAEGGSLPDILQEAEVPLVDQDECQRLLPEYTFTSSMLCAGYEEGGVDSCQGDSGGPLMCLEDARWTLIGVTSFGVGCGRPERPGAYARVSAFTSWIAETRRSSFSDLD
B3: Medaka EP-1 serine protease domain mutant P193A (protein)
chain: VVGGVNAEKGAWPWMVSLHWRGRHGCGASLIGRDWLLTAAHCVYGKNTHLQYWSAVLGLHAQSSMNSQEVQIRQVDRIIINKNYNRRTKEADIAMMHLQQPVNFTEWVLPVCLASEDQHFPAGRRCFIAGWGRDAEGGSLPDILQEAEVPLVDQDECQRLLPEYTFTSSMLCAGYAEGGVDSCQGDSGGPLMCLEDARWTLIGVTSFGVGCGRPERPGAYARVSAFTSWIAETRRSSFSDLD
B4: Medaka EP-1 serine protease domain mutant T105E (protein)
chain: VVGGVNAEKGAWPWMVSLHWRGRHGCGASLIGRDWLLTAAHCVYGKNTHLQYWSAVLGLHAQSSMNSQEVQIRQVDRIIINKNYNRREKEADIAMMHLQQPVNFTEWVLPVCLASEDQHFPAGRRCFIAGWGRDAEGGSLPDILQEAEVPLVDQDECQRLLPEYTFTSSMLCAGYPEGGVDSCQGDSGGPLMCLEDARWTLIGVTSFGVGCGRPERPGAYARVSAFTSWIAETRRSSFSDLD

What was measured:
Pro-Phe-Arg-MCA = target: T1, Pro-Phe-Arg-MCA
T1 chain: PFR

[1] = target: recombinant fusion protein of Medaka trypsinogen
[2] = target: Human plasma fibronectin, P02751
Human plasma fibronectin, P02751, sequence (P02751 other isoform, or with tags, fused parts or gaps): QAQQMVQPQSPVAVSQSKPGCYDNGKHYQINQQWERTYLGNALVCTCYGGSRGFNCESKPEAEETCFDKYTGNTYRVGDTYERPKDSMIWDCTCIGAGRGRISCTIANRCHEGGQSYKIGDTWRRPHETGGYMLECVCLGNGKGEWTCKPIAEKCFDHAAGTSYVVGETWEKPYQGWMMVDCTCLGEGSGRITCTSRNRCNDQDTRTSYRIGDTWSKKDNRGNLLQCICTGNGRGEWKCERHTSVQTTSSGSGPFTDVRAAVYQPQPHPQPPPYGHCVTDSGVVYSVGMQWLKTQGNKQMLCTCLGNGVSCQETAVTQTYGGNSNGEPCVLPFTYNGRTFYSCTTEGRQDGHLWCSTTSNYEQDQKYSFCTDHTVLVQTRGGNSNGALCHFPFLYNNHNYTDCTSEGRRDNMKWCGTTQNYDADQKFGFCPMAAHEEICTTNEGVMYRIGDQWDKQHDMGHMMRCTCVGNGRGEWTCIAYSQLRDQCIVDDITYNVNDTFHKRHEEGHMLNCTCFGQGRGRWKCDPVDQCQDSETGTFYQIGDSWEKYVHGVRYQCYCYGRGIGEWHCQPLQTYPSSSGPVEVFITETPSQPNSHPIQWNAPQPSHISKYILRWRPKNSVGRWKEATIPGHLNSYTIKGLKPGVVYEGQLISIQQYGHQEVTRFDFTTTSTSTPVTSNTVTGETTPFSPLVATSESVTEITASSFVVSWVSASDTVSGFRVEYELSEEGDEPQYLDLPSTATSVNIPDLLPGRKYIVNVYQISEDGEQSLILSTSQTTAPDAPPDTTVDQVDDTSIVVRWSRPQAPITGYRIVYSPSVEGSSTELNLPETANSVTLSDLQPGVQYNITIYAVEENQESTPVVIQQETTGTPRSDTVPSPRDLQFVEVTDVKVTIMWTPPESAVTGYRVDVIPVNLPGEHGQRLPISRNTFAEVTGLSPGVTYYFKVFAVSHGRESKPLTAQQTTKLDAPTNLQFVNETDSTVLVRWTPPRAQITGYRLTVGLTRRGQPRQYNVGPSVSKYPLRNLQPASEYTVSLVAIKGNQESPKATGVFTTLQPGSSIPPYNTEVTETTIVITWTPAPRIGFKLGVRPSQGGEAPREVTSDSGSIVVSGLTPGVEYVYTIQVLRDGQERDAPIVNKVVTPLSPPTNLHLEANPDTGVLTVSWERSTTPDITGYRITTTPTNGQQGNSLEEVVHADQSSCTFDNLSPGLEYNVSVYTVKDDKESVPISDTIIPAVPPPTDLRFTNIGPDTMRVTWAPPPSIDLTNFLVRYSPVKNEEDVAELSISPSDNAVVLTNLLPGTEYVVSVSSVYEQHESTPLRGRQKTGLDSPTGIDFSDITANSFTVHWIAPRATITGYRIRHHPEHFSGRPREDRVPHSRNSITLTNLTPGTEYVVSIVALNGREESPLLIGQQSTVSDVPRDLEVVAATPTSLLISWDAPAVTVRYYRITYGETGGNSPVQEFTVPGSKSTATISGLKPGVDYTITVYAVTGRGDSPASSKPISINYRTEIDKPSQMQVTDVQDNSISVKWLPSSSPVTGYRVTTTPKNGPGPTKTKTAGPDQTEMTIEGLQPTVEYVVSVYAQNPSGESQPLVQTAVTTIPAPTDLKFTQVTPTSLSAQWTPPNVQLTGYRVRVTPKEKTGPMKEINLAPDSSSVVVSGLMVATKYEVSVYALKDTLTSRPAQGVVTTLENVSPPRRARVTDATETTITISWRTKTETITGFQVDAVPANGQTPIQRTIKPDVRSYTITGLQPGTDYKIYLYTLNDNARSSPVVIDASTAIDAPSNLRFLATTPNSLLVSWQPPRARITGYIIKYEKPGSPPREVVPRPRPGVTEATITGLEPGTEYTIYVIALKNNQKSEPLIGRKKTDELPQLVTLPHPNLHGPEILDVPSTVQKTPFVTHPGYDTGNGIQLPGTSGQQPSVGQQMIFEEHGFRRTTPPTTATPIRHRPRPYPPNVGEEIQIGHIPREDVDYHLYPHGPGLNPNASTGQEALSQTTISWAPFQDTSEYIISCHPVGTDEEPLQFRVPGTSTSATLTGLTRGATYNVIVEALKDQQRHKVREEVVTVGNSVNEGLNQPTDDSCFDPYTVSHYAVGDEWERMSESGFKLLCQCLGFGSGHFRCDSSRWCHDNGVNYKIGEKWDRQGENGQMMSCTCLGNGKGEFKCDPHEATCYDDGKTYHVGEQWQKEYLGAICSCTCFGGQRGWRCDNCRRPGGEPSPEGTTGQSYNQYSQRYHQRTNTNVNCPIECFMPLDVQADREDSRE

human fibrinogen, P02671 = target: T2, human fibrinogen, P02671
T2 chain 1: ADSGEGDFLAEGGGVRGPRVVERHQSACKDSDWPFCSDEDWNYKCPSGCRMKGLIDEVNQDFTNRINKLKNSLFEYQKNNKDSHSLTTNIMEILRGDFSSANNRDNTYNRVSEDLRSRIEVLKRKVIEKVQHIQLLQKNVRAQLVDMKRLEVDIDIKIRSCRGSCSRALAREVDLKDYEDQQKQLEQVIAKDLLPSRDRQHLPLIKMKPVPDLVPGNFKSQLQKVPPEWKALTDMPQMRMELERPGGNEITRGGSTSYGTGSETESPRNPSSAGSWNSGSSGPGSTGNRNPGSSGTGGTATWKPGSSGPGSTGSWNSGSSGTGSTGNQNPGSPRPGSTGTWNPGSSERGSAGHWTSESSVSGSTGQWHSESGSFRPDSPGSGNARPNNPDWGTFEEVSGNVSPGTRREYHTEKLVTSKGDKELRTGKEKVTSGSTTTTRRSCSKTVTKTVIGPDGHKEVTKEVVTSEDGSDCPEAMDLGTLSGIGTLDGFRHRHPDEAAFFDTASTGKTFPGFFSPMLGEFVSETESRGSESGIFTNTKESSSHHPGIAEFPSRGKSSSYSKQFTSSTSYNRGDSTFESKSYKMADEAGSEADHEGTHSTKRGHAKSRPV
T2 chain 2: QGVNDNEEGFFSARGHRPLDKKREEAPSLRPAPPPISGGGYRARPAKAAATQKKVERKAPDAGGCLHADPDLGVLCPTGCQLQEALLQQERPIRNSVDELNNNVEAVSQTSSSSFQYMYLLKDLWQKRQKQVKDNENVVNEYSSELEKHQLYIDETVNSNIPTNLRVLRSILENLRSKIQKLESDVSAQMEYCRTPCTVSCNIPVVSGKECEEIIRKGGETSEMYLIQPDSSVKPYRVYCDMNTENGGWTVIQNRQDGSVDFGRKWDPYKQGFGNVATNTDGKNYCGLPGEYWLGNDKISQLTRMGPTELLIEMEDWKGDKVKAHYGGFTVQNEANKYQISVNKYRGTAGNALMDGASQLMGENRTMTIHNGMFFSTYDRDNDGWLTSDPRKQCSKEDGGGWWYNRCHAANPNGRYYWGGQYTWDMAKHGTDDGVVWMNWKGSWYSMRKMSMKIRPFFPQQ
T2 chain 3: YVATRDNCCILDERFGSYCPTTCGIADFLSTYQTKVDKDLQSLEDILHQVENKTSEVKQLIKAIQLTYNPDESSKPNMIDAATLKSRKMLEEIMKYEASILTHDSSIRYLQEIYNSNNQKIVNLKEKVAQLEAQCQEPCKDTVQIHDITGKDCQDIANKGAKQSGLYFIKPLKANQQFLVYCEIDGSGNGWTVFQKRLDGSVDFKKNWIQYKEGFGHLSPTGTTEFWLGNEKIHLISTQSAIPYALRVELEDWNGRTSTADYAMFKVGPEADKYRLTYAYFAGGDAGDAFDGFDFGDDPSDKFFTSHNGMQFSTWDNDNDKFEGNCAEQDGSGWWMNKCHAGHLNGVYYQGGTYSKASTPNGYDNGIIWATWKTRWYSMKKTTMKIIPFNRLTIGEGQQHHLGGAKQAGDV

Z-Phe-Arg-MCA = target: T3, Z-Phe-Arg-MCA
T3 chain: FR

[3] = target: T4, human high-molecular-weight (HMW) kininogen, P01042
T4 chain: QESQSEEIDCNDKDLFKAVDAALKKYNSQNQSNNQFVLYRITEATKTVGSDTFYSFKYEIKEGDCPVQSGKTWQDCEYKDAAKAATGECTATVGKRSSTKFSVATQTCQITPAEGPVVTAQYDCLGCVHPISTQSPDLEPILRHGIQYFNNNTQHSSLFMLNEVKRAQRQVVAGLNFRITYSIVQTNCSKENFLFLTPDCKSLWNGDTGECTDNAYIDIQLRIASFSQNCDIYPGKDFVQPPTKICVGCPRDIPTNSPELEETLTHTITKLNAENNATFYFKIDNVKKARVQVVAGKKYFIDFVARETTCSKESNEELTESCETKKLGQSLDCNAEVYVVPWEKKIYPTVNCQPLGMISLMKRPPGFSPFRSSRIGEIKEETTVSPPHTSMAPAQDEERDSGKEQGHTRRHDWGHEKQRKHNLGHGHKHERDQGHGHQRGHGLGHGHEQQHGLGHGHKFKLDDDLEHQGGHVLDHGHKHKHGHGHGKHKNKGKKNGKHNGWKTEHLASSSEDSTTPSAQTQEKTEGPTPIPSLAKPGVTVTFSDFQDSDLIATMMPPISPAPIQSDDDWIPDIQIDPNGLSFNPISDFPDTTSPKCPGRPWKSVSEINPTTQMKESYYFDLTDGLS

[4] = target: T5, Boc-Glu(OBzl)-Ala-Arg-MCA
T5 chain: EAR

[5] = target: T6, Gly-Asp-Asp-Asp-Asp-Lys-β-naphthylamide
T6 chain: GDDDDK

Row | Protein | Km (Pro-Phe-Arg-MCA) | enzyme activity against wild-type (Pro-Phe-Arg-MCA) | kcat (Pro-Phe-Arg-MCA) | kcat/Km (mM^-1 · min^-1) (Pro-Phe-Arg-MCA) | activation of trypsinogen [1] | conversion of trypsinogen to active enzyme [1] | hydrolysis [2] | nonspecific proteolytic activity (SDS-PAGE) (human fibrinogen, P02671) | Km (Z-Phe-Arg-MCA) | enzyme activity against wild-type (Z-Phe-Arg-MCA) | kcat (Z-Phe-Arg-MCA) | kcat/Km (mM^-1 · min^-1) (Z-Phe-Arg-MCA) | nonspecific proteolytic activity (SDS-PAGE) [3] | Km [4] | enzyme activity against wild-type [4] | kcat [4] | kcat/Km (mM^-1 · min^-1) [4] | hydrolysis (mouse laminin) | Km [5] | enzyme activity against wild-type [5] | other results
1 | B1 | 1.1 mM | consistently resulted in reduced enzyme activity for synthetic peptide substrates | 11 min⁻¹ | 10 | K63R converted to trypsin as fast as the wild type enzyme | A total of 12 mutants could convert the recombinant Medaka trypsinogen to its active enzyme (data not shown) | Neither human fibronectin nor laminin was hydrolyzed by the mutants (data not shown) | The mutant proteases had lower nonspecific proteolytic activity for ... human fibrinogen | 0.1 mM | consistently resulted in reduced enzyme activity for synthetic peptide substrates | 1.4 min⁻¹ | 14 | The mutant proteases had lower nonspecific proteolytic activity for human HMW kininogen | 1.2 mM | consistently resulted in reduced enzyme activity for synthetic peptide substrates | 12 min⁻¹ | 10 | Neither human fibronectin nor laminin was hydrolyzed by the mutants (data not shown) | 0.2 mM | consistently resulted in reduced enzyme activity for synthetic peptide substrates | kcat [5]: 210 min⁻¹; kcat/Km (mM^-1 · min^-1) [5]: 1100
2 | B2 | 1 mM | consistently resulted in reduced enzyme activity for synthetic peptide substrates | 27 min⁻¹ | 27 | the other mutants activated trypsinogen at a reduced rate | A total of 12 mutants could convert the recombinant Medaka trypsinogen to its active enzyme (data not shown) | Neither human fibronectin nor laminin was hydrolyzed by the mutants (data not shown) | The mutant proteases had lower nonspecific proteolytic activity for ... human fibrinogen | 0.2 mM | consistently resulted in reduced enzyme activity for synthetic peptide substrates | 1.7 min⁻¹ | 9 | The mutant proteases had lower nonspecific proteolytic activity for human HMW kininogen | 0.2 mM | consistently resulted in reduced enzyme activity for synthetic peptide substrates | 2.3 min⁻¹ | 12 | Neither human fibronectin nor laminin was hydrolyzed by the mutants (data not shown) | 0.4 mM | consistently resulted in reduced enzyme activity for synthetic peptide substrates | kcat [5]: 290 min⁻¹; kcat/Km (mM^-1 · min^-1) [5]: 730
3 | B3 | – | The same held true for all the other mutants except for F144A | – | – | – | A total of 12 mutants could convert the recombinant Medaka trypsinogen to its active enzyme (data not shown) | – | – | – | The same held true for all the other mutants except for F144A | – | – | – | – | The same held true for all the other mutants except for F144A | – | – | – | – | The same held true for all the other mutants except for F144A | –
4 | B4 | 1.3 mM | consistently resulted in reduced enzyme activity for synthetic peptide substrates | 16 min⁻¹ | 12 | the other mutants activated trypsinogen at a reduced rate | A total of 12 mutants could convert the recombinant Medaka trypsinogen to its active enzyme (data not shown) | Neither human fibronectin nor laminin was hydrolyzed by the mutants (data not shown) | The mutant proteases had lower nonspecific proteolytic activity for ... human fibrinogen | 0.1 mM | consistently resulted in reduced enzyme activity for synthetic peptide substrates | 2 min⁻¹ | 20 | The mutant proteases had lower nonspecific proteolytic activity for human HMW kininogen | 1.3 mM | consistently resulted in reduced enzyme activity for synthetic peptide substrates | 11 min⁻¹ | 9 | Neither human fibronectin nor laminin was hydrolyzed by the mutants (data not shown) | 0.4 mM | consistently resulted in reduced enzyme activity for synthetic peptide substrates | kcat [5]: 260 min⁻¹; kcat/Km (mM^-1 · min^-1) [5]: 650

— patent publication US20080213836
